Experimental data published in patent publication US10058586B2, “Use of human small leucine zipper protein in adipocyte differentiation procedure” (Korea University Research and Business Foundation, priority 2013, dated 2018).

Molecular target: T1, PPARγ2 (Homo sapiens, UniProt P37231)
T1 sequence (P37231 1-505): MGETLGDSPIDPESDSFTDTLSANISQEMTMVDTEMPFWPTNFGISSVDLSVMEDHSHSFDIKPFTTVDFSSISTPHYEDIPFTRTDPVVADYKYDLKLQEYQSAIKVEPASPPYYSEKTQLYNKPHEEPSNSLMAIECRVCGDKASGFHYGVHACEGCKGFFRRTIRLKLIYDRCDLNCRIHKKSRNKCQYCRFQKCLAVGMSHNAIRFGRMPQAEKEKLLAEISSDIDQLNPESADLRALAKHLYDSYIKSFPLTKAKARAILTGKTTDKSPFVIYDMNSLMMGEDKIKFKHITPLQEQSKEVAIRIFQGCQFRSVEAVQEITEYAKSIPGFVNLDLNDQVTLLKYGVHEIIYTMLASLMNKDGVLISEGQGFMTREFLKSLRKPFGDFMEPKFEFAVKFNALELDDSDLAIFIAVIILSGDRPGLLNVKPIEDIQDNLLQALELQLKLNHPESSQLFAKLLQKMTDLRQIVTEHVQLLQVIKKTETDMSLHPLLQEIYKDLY
Test: FABP4 enhancer-luciferase reporter analysis of PPARγ2 transcriptional activity in 293T cells
Type: cell-based
Design: expressed in transfected cells; host or cells: 293T cells
Settings: sLZIP 0.1 to 0.5 μg, 10 nM RZD
Procedure: Appropriately transfected cells were washed with cold PBS twice, and a reporter lysis buffer (Promega) was used and lysed in a culture dish. Luciferase analysis was performed using a luciferase analysis system (Promega Corporation, Madison, Wis.). A luciferase activity was recorded in Luminometer 20/20^n (Turner BioSystems, Sunnyvale, Calif.) according to instructions of the manufacturer. The luciferase activity was normalized to a β-galactosidase activity. For β-galactosidase analysis, CMV-β-galactosidase was transfected with luciferase reporter genes. All pieces of data were represented as mean±standard deviation of the results from at least three independent experiments.
A DNA binding ability of sLZIP with various elements in the FABP4 enhancer region was examined. For this purpose, recombinant His-sLZIP fusion proteins (3 μg) were incubated with γ-^32P-labeled oligonucleotide probes containing expected CREB binding elements (FIG. 7B). The γ-^32P-labeled oligonucleotide probes were incubated while an amount of purified His-sLZIPs was increased. […]
Adipocyte differentiation is a well-regulated procedure. […] A promoter activity was measured according to luciferase analysis (FIG. 8B). […] Total RNA was extracted from the cells, and an mRNA expression level of mouse LZIPs was measured using RT-PCR analysis. […]

B1: sLZIP: human small leucine-zipper protein, isoform of LZIP, 354 amino acids, no transmembrane domain; GenBank FJ263669, SEQ ID NO: 1 (protein, listed as Homo sapiens)
chain: MELELDAGDQDLLAFLLEESGDLGTAPDEAVRAPLDWALPLSEVPSDWEVDDLLCSLLSPPASLNILSSSNPCLVHHDHTYSLPRETVSMDLESESCRKEGTQMTPQHMEELAEQEIARLVLTDEEKSLLEKEGLILPETLPLTKTEEQILKRVRRKIRNKRSAQESRRKKKVYVGGLESRVLKYTAQNMELQNKVQLLEEQNLSLLDQLRKLQAMVIEISNKTSSSSMYSSDTRGSLPAEHGVLSRQLRALPSEDPYQLELPALQSEVPKDSTHQWLDGSDCVLQAPGNTSCLLHYMPQAPSAEPPLEWPFPDLFSEPLCRGPILPLQANLTRKGGWLPTGSPSVILQDRYSG
With B1 the “transcriptional activity of PPARγ2 (FABP4 enhancer-luciferase)” value was “decreased the transcriptional activity of PPARγ2 in a concentration-dependent manner”.
